Here are results for 20 sequences from a protein production outcome set (Wang et al. 2014).
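Also: failed if final PepcDB status was selected cloned or expressed and not failed if soluble or beyond.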

The series in a line: label from the status in PepcDB records.
Consider “MDYPVWQLWGINGGLLVAIISVLHVFVAQFAVGGGFLLVHAATRAERAGSAEATFWVKRFTRFFLLLSMVFGGVSGVGIWVIISLISPAATSLLVHRFVYAWATEWVFFLGEIVALLVYYYGFGKMRFEDHRNVGLLYGLFAYLSLFMINGIITFMLTPGAWMQTQGFWDGFFNPTFWPSLLFRSALCAMLSGLFGLVWASLIDDERARELMTGVTRLWALVPIPFMAVGAWWYLGALPAPQLEMVLRRTADIRPFLEAFPWVLAALMVGGLAFFTRLPSGARVPVAALLLVLGLCQVGTFEWVRETGRRPWIVHGVIWSNGITPEAGAKSDLEGMLKVARWSGVKQVAEANMHEAGRELWQVQCANCHGLGAPMIDILPRIANRPLTGVEALITGQGALQGYMPPFVGTPAERRALATYLVNERDARRH”, for which the protein production entry is “failed”.
The result for “MSDLVRVERKGRVTTVILNRPASRNAVNGPTAAALCAAFEQFDRDDAASVAVLWGAGGTFCAGADLKAFGTPEANSVHRTGPGPMGPSRMMLSKPVIAAVSGYAVAGGLELALWCDLRVAEEDAVFGVFCRRWGVPLIDGGTVRLPRLIGHSRAMDMILTGRGVPADEALAMGLANRVVPKGQARQAAEELAAQLAALPQQCLRSDRLSALHQWGLPESAALDLEFASIARVAGEALEGARRFAAGAGRHGAPAPRAEQGDTL” reads “not failed”; that for “MQKPAVTVMVKAARLAGNVLLRGINKLDALNVVQKGRMDYASEVDADAEKVIIKELKRGYPEYAVFGEEGGVQGGKSGRYTWVIDPLDGTSNYLRGFPHYCVSIALVENGEPTDAVIFDPLRNELFTASRGAGAVLNDRRIRIAERKDLEGAMVHTGFPPRERARASAQLKCVDALLVQAEDVRRTGSAALDLAYVACGRADAYFEAGVKAWDIAAGVLLVREAGGRVCDYKGATPPRMDNMGPETQQIVAGNIKISDALQKVIVNTGYAREFDAKF”, “failed”.
The result for “MEEPKWLEGLLRTNFFSICPRHRETPRNECNMFCLSCQNAAFCFYCRSSFHIDHPVLQIRRSSYHDVVRVSEIENALDIRGVQTYVINSARVLFLNERPQPKNSSHEPFLIPFASVPWVARFVFLHLFSMQNSFL” reads “not failed”; that for “MIIQIVLWDCYTVPYFCFEKRRFMEELKFEELELCPEILKAVKHMGFEEASPIQSKAIPVIMSGKDVIGQAQTGTGKTAAFGIPLLEKIDPKNKKLQAIVLCPTRELAIQVAEEIRNLAKYMHGIKVLPIYGGQEIVKQIRSLKSGTQLVIGTPGRVMDHMRRKTMKMDHVHTIVLDEADEMLNMGFREDIETILEGIPQEHQTVLFSATMPKAILEITKQFQTNAELVKVTKKELTVPNIEQFYYEVKPKNKEEVLSRLLDIYTPKLSVVFCNTKKQVDLLVNGLLGRGYFAAGLHGDMKQAQRDRVMQGFRSGKTDILVCTDVAARGIDVDDVEAVFNYDLPQDDEYYVHRIGRTGRAGRVGRSFSFVSGREVYKLKEIQRYCKTKIYAQKVPSLNDVANTKMENVLEEIEQIIENEDLTKFLQIIEERVNESDYTAMDLAAAFLKYCSGQQETEEKDMEFGDTGAEEAGMVRLFINIGKKNKAKPGDIVGAIAGESGIPGKLIGTIDMFDKYTFVEVPREYARDVLNAMNHTKIKGKSVAVEPANQK”, “failed”; that for “MNQVHHAAQQGFSQAAELYQHARPNYPQAVVEWLKQDLRLNKYSKVVDLGAGTGKFLPYLKQVTTDIVAVEPVHEMLQQLQTAHPDIKVLQAQSTNIPLESESIDAVLCAQSFHWFANIESLNEIYQLLKPSGHLGLIWNQRDENIDWVKQIADMLMTFEGDTPRYHSGEWKKAFEHQHLFKLEHARVFSHVHTGTVEQVVSQRLLSTSFIAAMPEAQQQQLKQQFEHIVFECTGKQPTDQIDFPYITYAYDFKKI”, “failed”.
For “MEDIYKLIDDINLQKIENLDSRVNEALSSNNDDALFILGETLYNFGLTPQGLEVFRTLYHKYPDESELLIYFIEGLMSENQTDEALEYLAQVEPSTEKLMLEADLYQQINMLEVAIDKLQEALDLEPNDPIIHFALAELLYYDGQYLRATREYETVLETGEYEVNGVNIFSRMADCSLQSGNYSDAISLFDEINEEEMNSEDYFKKSIAYEKNDLTQEAIKIMQTLLSKDPDFIQGYFYLQSLFENEKNYPDAIETGKEGLRLSQFYKELMVSTGSLEIEHGDANEGVELLKQALEVDNAYHEPLLILSDLYRNEEDYESIIQLLTYVDEEDLDPIFMWHLAYAYGQEERDKEAQHFFELAYPTLQTQVEFLSDYYFYLLEIGQKEKAILILNQLLEIDPSNENWHDESMRLQI” the value was “failed”.
Turning to “ARHPDLVSCLTLLQAGDVAAFTVWKAARDPKGVLATPILGHVAMRRMAPKRMPAWYALSVGKADMISELCRCAERSFQHGAQWSLASAYQCYMDPAVELPRPHQPLLSIWGGADFSHPAGNEHSIRRLRPDAVCVTFDDLGHTPELEDPIRVFDAIVRFCEA”, the protein production result is recorded as “failed”.
The result for “MILSQQKYNYLAKVSDSNGVISALAFDQRGALKCLMAQYQMKEPTVAQMEELKVLVSEELTPYASSILLDPEYGLPAAQARDREAGLLLAYEKTGYDANTTSRLPDCLVDWSIKRLKEAGADAVKFLLYYDVDGDPQVNVQKQAYIERIGSECQAEDIPFFLEILTYDETISNNSSVEFAKVKVHKVNDAMKVFSAERFGIDVLKVEVPVNMVYVEGFAEGEVVYSKEEAAQAFREQEASTDLPYIYLSAGVSAELFQETLVFAHKAGAKFNGVLCGRATWAGSVQVYMEEGKEAARQWLRTSGLQNINELNKVLKTTASPWTEKVSVG” reads “not failed”; that for “MSPIDEFTYIKQNKIVYDSNSLIQLYFPIMGSDAMALYDYFVHFFDDGIRRHKFSEVLNHLQYGMPRFQDALVMLTALDLLTVYQATGTYLVKLNQAMSNELFLSNPIYRRLLEKRIGEVAVAELDMKIPKNARDISKKFTDVFSDLGQPKQEVNRSKNVFDLESFKRLMMRDGLRFNNEKDDVLGIYSVSELYHLNWYDTYQLAKQTAINGMIAPQRMKVQQNEGQHIKDNQSFTNNEKVILRESKNDSALVFLEKIKRSRKAVTTSGEKTLLEDLAKMNFLDEVINVMVLYTLNKTKSANLNKAYIMKVANDFAFQNVMTAEDAVLKIRDFSDQKVRTKTETKKKQSNVPEWSNPDYKDEVSPEKEIELEQFKTDALKRLERLGKD”, “not failed”.
For “MVPLPRSMRVLHWLTVLCLVMAASLILLRAELEGRALRQWLLEGHRHFGLMVLLLFVLRVSLRLRLRALPPGPPSPLIMRLAAGGTHVAMYALMLALPLIGWSLSNAYGKTVYLFGITLPNLVAADEDLADTLGTWHLNAAWALLALVAVHIVAALVHHLVLRDGLLHRVLPGKHHR” the value was “failed”.
The result for “MSILDTLKTPVIVAPMAGGPSTPALVNAAAEAGSLGFLAGGVMPLEQLKQELSEVKGVFGVNLFRPQTDAPKPSDIDELAGLLSSAFRQFGLDEPTVPTPDLSNGWEAKFEAVLAAKPAVFSCTFGIFSAEEFARIKATGIEAWVTVTNPEDALAAQKAGANALVVQGPEAGGHRSTWSIEVEPDERDLKTLLAAVKQAGVYLPLIAAGGLSTSADVAAILEAGASAASCGSAFLLSDEAGTSSLNREILDAAPALGLESVSSRAFSGRYARGVETRFTRSNEGLPPLYPYLNPMITSLRKVAGSAGNWDYAYCLVGVGLESIAKGSAKQILESLTPSALG” reads “failed”; that for “MTAMMTILGPVLMGAAFGFLLQRGKVTNCNVIENQFRLRDFTVLKVMGTAIVVGGIGVLLLVDTGNTKYYVKDANMLAIALGAALFGIGMVVYGYCPGTALGAIATGSIHALVGALGMVAGAILYALSFDWLKAHVLNVWALGKVRLPDVTNIPDIIWFAALAVGAGLFFWWIESVEAEQKRM”, “failed”.
As for “TIDRGIQTQIESLVERWNSEFKRSDIRNLAILVIDIRTNQAIAYCGNVHFDKEQSGNQVDVIRSPRSTGSILKPFLYYAMLQEGEILPNTLLPDIPVNINGFTPQNFNLQFEGAVPASEAIARSLNIPSVTMLQRYGVPKFHSFLKQIGLTTLNRPSSHYGLSLILGGAEATLWDITSAYANMGRSLNRLPQFPCTLLLSDSTSVHRPSFQSGAVWQTFDAIKEVNRPEEIDWRTIPSMQTIAWKTGTSYGFRDAWAVGVTPKYAVGVWVGNATGEGKPGLVGARTAGPVLFDVFNLL”, the protein production entry is recorded as “failed”.
With “MSSSTSQDFVSRPVIKKVFAKLQKEGDGAVVRRGISRSEQKLLDPFLMLDEFSVSPPAGFPDHPHRGITHQDFKGHKGTIYAGDVQWMTAGRGIIHSEMPEEEVNKEPNYQELSHSDIPKAEQNGVEVKVIAGESMGIQSPVYTRTPTMFLDFTLQPGAQIHQNVPESWNAFAYILESGEGGGVFSSSNSSPIPAHSVVVFGPGNDGVSVWNKSSSKQLRFVLIAGEPIGEPVVQYGPFVMNTQAEIDMTIEDYHYGKNGFEMAKYWRSQ”, the protein production result is listed as “failed”.
The result for “MQLQTEVKKQPSKRKFKMPDAYVLLFFIALLCAIATYFVPAGEFKRVTNRTVTTTIPGSYHSVPQSPVGFVSFFTAIEKGMTLAAPIIFLILFTGGAIAILEKTGALDGLIYHVINKFRNQQFLFICIVAALFSILGTTGIIVNSVIGFIPIGIIVARTLKWDAIVGVAIIYLGTYAGFNATILSPSPLGISQKIAELPMFSGIGLRTAIYLSFLLATILYINWYVKRLKKSNKGSILGDNWFPSNALSSGKEAQKTEVPWTIRHKLILLVSALSLITFLIGAFRLHWTDAEMTATFIFIAITAGIIGGMKANDIASTFLAGCQNLIYGALIVGMARCISVILEQGKLLDTIVNQLAQSLEGQSPVFGVIGMYVSSAALHFLISSGTGESVIFIPILAPLADFMHITRQVTVQAVMLGEGVVNCLNPTSGVLMGVLAASGISYGKWIRFMAPLAFIWFIIGLIFLIVGVNIEWGPY” reads “failed”; that for “MSFTWRKKMDAKTNNAISKSMMFFHWVIGLGMIAVLISGLVMDDESNNLLFNAHMSFGLLVLALSVPRLVGRLIGGMPKPMTERSKFESIAAAVVMYSLLALTVVLPLSGIAVSVGEGYGLSLFGFELVSSGREIHMLKELGEGIHEFSGEALLPFLLVLHLGASFMHHFIKQDGTLLRMLGKA”, “failed”; that for “MKWNSNLYDHKHSFVAEYGKSMINFVNVGKDQKILDLGCGTGVLTNELAKNGATVIGTDLSKNMIDKAKTNYPNLIFQVKDATNLSFKNEFDTVFSNAVFHWISNQEKLLHSIYTCLKDNGTLICEFGAQNNISQIQTAFEKVIEQKGYSYCSPFFFPSKEEYKLLLDQAGFEVKHIIEYDRPTPLADGEKGLRNWICQFFASDLLEFSDEQKEQILFETEKLCKNSIWKNNQWVADYRRIQIIAVKNKNNGTK”, “failed”.
The result for “KDNTKVIAHRGYWKTEGSAQNSIRSLERASEIGAYGSEFDVHLTADNVLVVYHDNDIQGKHIQSCTYDELKDLQLSNGEKLPTLEQYLKRAKKLKNIRLIFELKSHDTPERNRDAARLSVQMVKRMKLAKRTDYISFNMDACKEFIRLCPKSEVSYLNGELSPMELKELGFTGLDYHYKVLQSHPDWVKDCKVLGMTSNVWTVDDPKLMEEMIDMGVDFITTDLPEETQKILHSRAQ” reads “not failed”; that for “MLMTLAATTSVSFNSKLLLFRIRCSDSNPKRGFGSKKEEKDPALQQRKSSSKQSVSVPRKAPGLNTQFEGKSGRSFDIDFDERLENIRRSALEQKKTEVVKEFGPIDYDAPVKSDQKTIGLGTKVGVGIAVVVFGLVFALGDFLPTGSDSPTKNTTVVKNQISEEEKATLQQRLKEFETTLNGTPQDQAALEGAAVTLTELGDYSRAAAFLEKLAKERPTDPDVFRLLGEVNYELNNYEGSIAAYKISEKVSKGIDLEVTRGLMNAYLAAKKPDEAVKFLLDTRERLNTKKTSTTDSVTDETNLDPIQVELLLGKAYSDWGHISDAIAVYDQLISAHPEDFRGYLAKGIILRENGSRGDAERMFIQARFFAPNKAKALVDRYSKL”, “failed”.
